Legend:
[1] = target: T1, mAdipoR1 (Mus musculus, UniProt Q91VH1); assay: Xenopus oocytes injected with AdipoR1 cRNA, two-electrode voltage clamp recording; type: cell-based
T1 construct: expressed in transfected cells; host or cells: Xenopus oocytes (stage V to VII) injected with cRNA
T1 sequence (Q91VH1 1-375): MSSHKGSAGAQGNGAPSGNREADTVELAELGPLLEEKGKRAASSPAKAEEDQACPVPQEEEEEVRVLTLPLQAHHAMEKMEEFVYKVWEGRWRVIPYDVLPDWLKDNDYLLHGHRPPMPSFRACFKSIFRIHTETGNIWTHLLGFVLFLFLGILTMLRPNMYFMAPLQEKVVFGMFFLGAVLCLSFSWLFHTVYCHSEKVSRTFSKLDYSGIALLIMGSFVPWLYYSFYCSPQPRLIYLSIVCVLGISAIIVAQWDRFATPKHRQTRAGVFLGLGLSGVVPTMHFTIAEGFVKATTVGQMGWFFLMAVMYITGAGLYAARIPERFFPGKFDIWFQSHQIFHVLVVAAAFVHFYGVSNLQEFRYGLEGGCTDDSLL
Protocol: Stage V to VII oocytes were treated with 2 mg/ml of collagenase S-1 (Nitta gelatin) in calcium ion-free saline solution (82.5 mM NaCl, 2 mM KCl, 1 mM MgCl2, and 5 mM HEPES, pH 7.5) for 1 to 2 hr at room temperature. The resulting oocytes were then microinjected with 50 ng of cRNA for mAdipoR1. The cRNA was synthesized from linearized modified pSPUTK. The injected oocytes were incubated for 3 days at 18° C. in a bath solution (88 mM NaCl, 1 mM KCl, 0.3 mM Ca(NO3)2, 0.4 mM CaCl2, 0.8 mM MgSO4, 2.4 mM NaHCO3, 15 mM HEPES, pH 7.6) supplemented with 10 μg/ml of penicillin and streptomycin.
Whole cell currents were recorded with a two-electrode voltage clamp technique. Intracellular glass electrodes were filled with 3M KCl. Signals were amplified with an OC-725C amplifier (Warner Instruments), low-pass filtered at 50 Hz, and digitized at 1 kHz. A control bath solution contained 115 mM NaCl, 2.5 mM KCl, 1.8 mM CaCl2, and 10 mM HEPES. It was titrated to pH 7.2 with NaOH. A calcium ion free solution containing 1.8 mM BaCl2 instead of CaCl2 was used. The inward current was monitored at a holding potential of −80 mV. Calcium ion activated Cl^− current was monitored by applying 500-mscc depolarizing pulses of +100 mV and +50 mV from the holding potential of −80 mV. Adiponectin was supplied to the superfusing bath solution via a silicon tube connected to computer-driven solenoid valves. Data acquisition and analysis were carried out using Digidata 1322A and pCLAMP software.

[2] = target: T2, AdipoR1 (Mus musculus, UniProt Q91VH1); assay: Patch clamp test, whole-cell current of C2C12 myocytes; type: cell-based; design: endogenous in cells; host or cells: mouse C2C12 myocytes (differentiated from myoblasts); details: holding potential -60 mV, adiponectin 30 μg/ml 30 sec
T2 sequence (Q91VH1 1-375): T1 sequence (Q91VH1 1-375)
Protocol: Whole-cell currents were amplified with a patch-clamp amplifier (CEZ-2400; Nihon Kohden) and were digitized with a PowerLab digitizer (AD Instruments). Ringer's solution was used for the extracellular solution. The electrode solution contained 140 mM KCl, 10 mM HEPES, 5 mM EGTA-2K, and 10 mM D-glucose (pH 7.4). The data were low-pass filtered at 2 kHz and were sampled at 20 kHz. Ligands dissolved in Ringer's solution were applied at least twice with a self-made pressure-ejection system and via a two-barreled glass capillary.

[3] = tested on: AMPK; assay: AMPK phosphorylation in vivo (skeletal muscle and liver, immunoblotting); design: species or system mice; details: adiponectin 30 μg per 10 g body weight, 10 min
Protocol: (§1) Mouse full-length adiponectin was generated as described in the following documents (Nature Med. 8, 1288-1295 (2002); Nature Med. 7, 941-946 (2001); Nature 423, 762-769 (2003)).
(§2) Real-time PCR was carried out according to the method described in the following documents (Nature Med. 13, 332-339 2007); Nature 423, 762-769 (2003); J. Biol. Chem. 281, 8748-8755 (2006)). Total RNA was prepared from cells or tissues by using Trizol (Invitrogen) according to the manufacturer's instructions. Quantification of mRNA was conducted using a real-time PCR method (Nature 423, 762-769 (2003)) with slight modifications. The procedures used for immunoblotting are described in the following documents (Nature Med. 7, 941-946 (2001); J. Biol. Chem. 281, 26602-26614 (2006); J. Biol. Chem. 281, 8748-8755 (2006)). The livers or muscles were freeze-clamped in liquid nitrogen in situ (Nature Med. 7, 941-946 (2001); J. Biol. Chem. 281, 26602-26614 (2006); J. Biol. Chem. 281, 8748-8755 (2006)).

[4] = tested on: PGC-1α (Ppargc1a); assay: Ppargc1a mRNA levels in skeletal muscle treated with adiponectin; type: in vivo, mice; details: control littermates; adiponectin 30 μg per 10 g body weight, 10 min
Protocol: as §1, §2

calcium-ion activated Cl- current response ([1]; control oocytes (no AdipoR1 cRNA), adiponectin 30 μg/ml): not observed
inward current responses ([1]; oocytes expressing AdipoR1, holding potential -80 mV, adiponectin 30 μg/ml 30 sec): induced
intracellular calcium levels by calcium-ion activated Cl- current ([1]; oocytes injected with AdipoR1 complementary RNA, adiponectin 30 μg/ml): increase
whole-cell inward current responses [2]: observed
B1: adiponectin: recombinant murine full-length adiponectin, internal ligand of adiponectin receptor 1 (protein, UniProt Q60994 1-247, looked up)
chain: MLLLQALLFLLILPSHAEDDVTTTEELAPALVPPPKGTCAGWMAGIPGHPGHNGTPGRDGRDGTPGEKGEKGDAGLLGPKGETGDVGMTGAEGPRGFPGTPGRKGEPGEAAYVYRSAFSVGLETRVTVPNVPIRFTKIFYNQQNHYDGSTGKFYCNIPGLYYFSYHITVYMKDVKVSLFKKDKAVLFTYDQYQEKNVDQASGSVLLHLEVGDQVWLQVYGDGDHNGLYADNVNDSTFTGFLLYHDTN
modifications: full-length
phosphorylation of AMPK in liver ([3]; both genotypes (control and muscle-R1KO)): increased
phosphorylation of AMPK in muscle ([3]; control littermates): increased
expression levels of Ppargc1a in muscle [4]: increased

Reference: US20130273567A1, “Screening Method for Candidate Agonist Compounds for Adiponectin Receptor I” (priority 2010, published 2013)
